In paper PMC8170004 (iScience, 2021):

Experiments:
Human GDF8, biotinylated = target: T1, Human GDF8, biotinylated (human, UniProt O14793 267-375, biotin (Biotin Labeling Kit-NH2)); assay: ELISA
T1 sequence: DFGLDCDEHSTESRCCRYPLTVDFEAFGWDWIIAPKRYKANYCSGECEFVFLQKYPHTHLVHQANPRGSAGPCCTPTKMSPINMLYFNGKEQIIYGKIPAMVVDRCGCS

[1] = target: T2, Human GDF11, biotinylated (human, UniProt O95390 299-407, biotin (Biotin Labeling Kit-NH2)); assay: ELISA
T2 sequence: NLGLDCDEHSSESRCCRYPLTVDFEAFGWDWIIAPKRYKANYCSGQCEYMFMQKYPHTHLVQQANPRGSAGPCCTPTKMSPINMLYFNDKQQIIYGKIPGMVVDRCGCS

B1: Bivalent Human FSTL3-Fc (Fc fusion)
chain: MGSGNPAPGGVCWLQQGQEATCSLVLQTDVTRAECCASGNIDTAWSNLTHPGNKINLLGFLGLVHCLPCKDSCDGVECGPGKACRMLGGRPRCECAPDCSGLPARLQVCGSDGATYRDECELRAARCRGHPDLSVMYRGRCRKSCEHVVCPRPQSCVVDQTGSAHCVVCRAAPCPVPSSPGQELCGNNNVTYISSCHMRQATCFLGRSIGVRHAGSCAGTPEEPPGGESAEEEENFV
- binding result (Human GDF8, biotinylated): binds
- binding result [1]: binds
